Laboratory results: US20090062180A1 (TEL AVIV UNIVERSITY FUTURE TECHNOLOGY DEVELOPMENT L P, published 2009)
Values belong to the binder of their own block, whether it stands above or below them. Square brackets hold non-standard residues; d marks the D form. Ends that are not written are not given here. * marks the point of attachment. Myristoyl = CCCCCCCCCCCCCC(=O)*; pS = N[C@@H](COP(=O)(O)O)C(=O)O

Experiments:
[1] = molecular target: T1, Purified recombinant rabbit GSK-3β (glycogen synthase kinase-3β) (rabbit, UniProt A0A5F9DUX8 1-420); assay: cell-based or functional assay
Protein kinase C-δ = assay: cell-based or functional assay
casein kinase-2 (CK-2) = assay: cell-based or functional assay
[2] = molecular target: catalytic subunit of cAMP dependent protein kinase (PKA); assay: cell-based or functional assay
[3] = molecular target: Cyclic dependent protein kinase, cdc2; assay: cell-based or functional assay
Protein kinase B (PKB) = assay: cell-based or functional assay
[4] = molecular target: mitogen activated protein kinase (MAPK); assay: cell-based or functional assay
[5] = molecular target: T1, Purified recombinant rabbit GSK-3β …; assay: Lineweaver-Burk analysis of the in vitro GSK-3 kinase assay; competitive against PGS-1 peptide substrate
Method: The results represent phosphate incorporation into PGS-1 peptide substrate (CPM). […] Each point is a mean of duplicate samples.
In vitro inhibition assays: Purified recombinant rabbit GSK-30 (Eldar-Finkelman et al., 1996) was incubated with peptide substrate PGS-1 ([…](p)EDEEE) (SEQ ID NO:15) and with a peptide inhibitor at indicated concentrations. The reaction mixture included Tris 50 mM (pH=7.3), 10 mM MgAc, ³²P[γ-ATP] (100 μM), 0.01% β-mercaptoethanol, and was incubated for 10 minutes at 30° C. Reactions were spotted on phosphocellulose paper (p81), washed with 100 mM phosphoric acid, and counted for radioactivity (as described in Eldar-Finkelman et al., 1996).

[6] = molecular target: endogenous GSK-3 (in HEK 293 cells); assay: cell-based or functional assay
[7] = molecular target: T1, Purified recombinant rabbit GSK-3β …; assay: cell-based or functional assay; remark: listed apart in the source

IC50 (in vitro GSK-3 kinase inhibition, PGS-1 substrate) [1]: 150 µM
% Maximal activity (kinase activity with 200 µM L803) (Protein kinase C-δ): 111%
% Maximal activity (kinase activity with 200 µM L803) (casein kinase-2 (CK-2)): 117%
% Maximal activity (kinase activity with 200 µM L803) [2]: 86%
% Maximal activity (kinase activity with 200 µM L803) [3]: 90%
% Maximal activity (kinase activity with 200 µM L803) (Protein kinase B (PKB)): 91%
% Maximal activity (kinase activity with 200 µM L803) [4]: 106%
Ki [5]: 70 µM
Binder: KEAPPAPPQ[pS]P (also called peptide 9) [Peptide No. 9 KEAPPAPPQS(p)P (L803)]

IC50 (comparative GSK-3β inhibition assay, PGS-1 substrate; FIG. 4) [1]: 40 µM
IC50 (in vitro GSK-3 kinase inhibition, PGS-1 substrate; FIGS. 3a-b) [1]: 40 µM
glycogen synthase activity in HEK 293 cells [6]: 2.5 fold
Binder: Myristoyl-GKEAPPAPPQ[pS]P [L803-mts (N-Myristol-GKEAPPAPPQS(p)P)]

Inhibitor functionality (IC50) [7]: > 800 µM
Binder: PAPPQ[pS]P [Peptide No. 12 PAPPQS(p)P]
